Measurements taken from patent US7495068B2, “Antiangiogenic peptides, polypeptides encoding same and methods for inhibiting angiogenesis” (Abbott Laboratories, priority 1996, dated 2009).

How the values were obtained:
BCE Cells [1] = settings: rows marked *: data taken from Marti et al. 1994; cited from earlier work
BCE Cells [2] = experiment: Endothelial proliferation assay (bFGF-stimulated); type: cell-based, bovine
Experimental: The in vitro proliferation of endothelial cells was determined as described by Lingen, et al., in Laboratory Investigation, 74: 476-483 (1996), which is hereby incorporated herein by reference, using the Cell Titer 96 Aqueous Non-Radioactive Cell Proliferation Assay kit (Promega® Corporation, Madison, Wis.). Bovine capillary (adrenal) endothelial cells were plated at a density of 1000 cells per well in a 96-well plate in Dulbecco's Modified Eagle Medium (DMEM) containing 10% donor calf serum and 1% BSA (bovine serum albumin, GIBCO® BRL, Gaithersburg, Md.). After 8 hours, the cells were starved overnight in DMEM containing 0.1% BSA then re-fed with media containing specified concentrations of inhibitor and 5 ng/mL bFGF (basic fibroblast growth factor). The results of the assay were corrected both for unstimulated cells (i.e. no bFGF added) as the baseline and for cells stimulated with bFGF alone (i.e. no inhibitor added) as the maximal proliferation. When multiple experiments were combined, the results were represented as the percent change in cell number as compared to bFGF alone.
The effect of kringle 5 peptide fragments on endothelial cell proliferation was determined in vitro using the above described endothelial cell proliferation assay. […]

B1: kringle 4 (Val^354-Val^443): kringle 4 fragment of plasminogen, SEQ ID NO:1 (protein, listed as Homo sapiens)
chain: VVQDCYHGDGQSYRGTSSTTTTGKKCQSWSSMTPHRHQKTPENYPNAGLTMNYCRNPDADKGPWCFTTDPSVRWEYCNLKKCSGTEASVV
Antiproliferative Activity of BCE Cells (ED50) (BCE Cells [1]): no activity

B2: kringle 5 (Val^443-Ala^543): kringle 5 peptide fragment, amino acid positions 443-543 of human plasminogen (SEQ ID NO:1) (protein, listed as Homo sapiens)
chain: VAPPPVVLLPDVETPSEEDCMFGNGKGYRGKRATTVTGTPCQDWAAQEPHRHSIFTPETNPRAGLEKNYCRNPDGDVGGPWCYTTNPRKLYDYCDVPQCAA
fold increase in activity at inhibiting BCE cell proliferation compared to kringle 1-4 peptide fragments (BCE Cells [2]; vs kringle 1-4 peptide fragments): ~800 fold | fold increase in activity at inhibiting BCE cell proliferation compared to kringle 5 fragment 443-546 of SEQ ID NO:1 (BCE Cells [2]; vs kringle 5 (443-546)): ~300 fold

B3: kringle 2 (Glu^161-Thr^245): kringle 2 fragment of plasminogen, SEQ ID NO:1 (protein, listed as Homo sapiens)
chain: ECEEECMHCSGENYDGKISKTMSGLECQAWDSQSPHAHGYIPSKFPNKNLKKNYCRNPDRELRPWCFTTDPNKRWELCDIPRCTT
Antiproliferative Activity of BCE Cells (ED50) (BCE Cells [1]): no activity
